Experimental findings from paper PMC8814693 (Computational and Structural Biotechnology Journal, 2022) are described below.

Common to all, as to conditions: both partners purified
Assay [1] has as its target T1, Bcl-2 (residues 1-207) (UniProt P10415 1-207).
T1 construct: Bcl-2, residues 1-207; Cloned in pET-28a(+) between NdeI and XhoI; buffer-exchanged to HBS-EP
Briefly: SPR; Bfk BH3 peptide amine-coupled to a CM5 chip (10 mM sodium acetate pH 5.0); Bcl-2, Bcl-XL (3.13-200 nM) and Bak (1.25-40.0 uM) injected in HBS-EP at 30 uL/min for 90 s; Biacore T200; KD by steady-state affinity analysis.

For assay [2], the target named is T2, Bcl-XL (residues 1-209) (UniProt Q07817-1 1-209).
T2 construct: Bcl-XL, residues 1-209; Cloned in pET-28a(+) between NdeI and XhoI; buffer-exchanged to HBS-EP
Described as above.

For assay [3], the target named is T1, Bcl-2 (residues 1-207). Briefly: SPR; Bid BH3 peptide amine-coupled to a CM5 chip (10 mM sodium acetate pH 4.0); proteins injected in HBS-EP (10 mM HEPES pH 7.5, 150 mM NaCl, 0.05 mM EDTA, 0.005% Tween 20) at 30 uL/min for 90 s; Biacore T200; affinity experiments, responses plotted against concentration.
Assay [4] has as its target T2, Bcl-XL (residues 1-209). The assay is described as above.
In assay [5] the target is T3, Bak (residues 23-186) (UniProt Q16611 23-186).
T3 construct: Bak, residues 23-186; Cloned in pET-28a(+) between NdeI and XhoI; buffer-exchanged to HBS-EP
T3 sequence (looked up): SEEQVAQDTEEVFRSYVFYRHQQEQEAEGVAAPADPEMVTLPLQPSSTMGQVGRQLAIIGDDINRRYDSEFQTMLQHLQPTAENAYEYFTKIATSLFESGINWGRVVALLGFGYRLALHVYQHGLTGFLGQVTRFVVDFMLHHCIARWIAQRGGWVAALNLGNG
The assay is described as above.

T2 sequence (Q07817 1-209): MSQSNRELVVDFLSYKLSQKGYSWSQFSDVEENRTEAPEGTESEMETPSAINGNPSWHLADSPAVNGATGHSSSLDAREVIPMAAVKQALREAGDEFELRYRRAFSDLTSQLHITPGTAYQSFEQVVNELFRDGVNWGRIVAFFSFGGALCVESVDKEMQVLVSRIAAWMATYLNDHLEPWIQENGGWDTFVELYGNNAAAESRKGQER
T1 sequence (P10415 1-207): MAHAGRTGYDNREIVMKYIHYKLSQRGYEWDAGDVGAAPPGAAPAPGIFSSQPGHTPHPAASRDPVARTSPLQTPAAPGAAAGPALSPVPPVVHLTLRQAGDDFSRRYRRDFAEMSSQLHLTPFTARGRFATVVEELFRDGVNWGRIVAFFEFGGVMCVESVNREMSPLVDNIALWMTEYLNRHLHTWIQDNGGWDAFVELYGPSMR

B1: synthetic BH3 peptide derived from Bfk (residues 47-67) (peptide)
peptide: SFDVAIIAGRLRMLGDQFNGE
notes: BH3 peptide of human Bfk (BCL2L15), residues 47-67; also called Bfk BH3 peptide; Bfk BH3; source: synthetic peptide
For B1, the Kd came out at 17.4 nM in assay [1] and 36.9 nM in assay [2].

B2: synthetic BH3 peptide derived from Bid (residues 79-100) (peptide)
peptide: EDIIRNIARHLAQVGDSMDRS
notes: BH3 peptide of Bid; also called Bid BH3 peptide; representative BH3 peptide; source: synthetic peptide
Turning to B2, the figures for the Kd in assay [3], in assay [4] and in assay [5] were 44 nM, 87 nM and 37000 nM, respectively.
